Assays:
Assay in all cases: cell-based or functional assay
[1] = molecular target: HIV-1 Env of pseudovirus 0260.v5.c36 (HIV-1)
[2] = molecular target: HIV-1 Env of pseudovirus 191084 B7-19 (HIV-1)
[3] = molecular target: HIV-1 Env of pseudovirus 249M B10 (HIV-1)
[4] = molecular target: HIV-1 Env of pseudovirus 6041.v3.c23 (HIV-1)
[5] = molecular target: HIV-1 Env of pseudovirus AC10.0.29 (HIV-1)
[6] = molecular target: HIV-1 Env of pseudovirus BJOX009000.02.4 (HIV-1)
[7] = molecular target: HIV-1 Env of pseudovirus C1080.c03 (HIV-1)
[8] = molecular target: HIV-1 Env of pseudovirus CAP210.2.00.E8 (HIV-1)
[9] = molecular target: HIV-1 Env of pseudovirus CNE17 (HIV-1)
[10] = molecular target: HIV-1 Env of pseudovirus CNE52 (HIV-1)
[11] = molecular target: HIV-1 Env of pseudovirus CNE53 (HIV-1)
[12] = molecular target: HIV-1 Env of pseudovirus CNE8 (HIV-1)
[13] = molecular target: HIV-1 Env of pseudovirus Ce1086_B2 (HIV-1)
[14] = molecular target: HIV-1 Env of pseudovirus Ce2010_F5 (HIV-1)
[15] = molecular target: HIV-1 Env of pseudovirus Ce2060_G9 (HIV-1)
[16] = molecular target: HIV-1 Env of pseudovirus Du172.17 (HIV-1)
[17] = molecular target: HIV-1 Env of pseudovirus HIV-0013095-2.11 (HIV-1)
[18] = molecular target: HIV-1 Env of pseudovirus MS208.A1 (HIV-1)
[19] = molecular target: HIV-1 Env of pseudovirus PVO.4 (HIV-1)
[20] = molecular target: HIV-1 Env of pseudovirus Q259.d2.17 (HIV-1)
[21] = molecular target: HIV-1 Env of pseudovirus QH0692.42 (HIV-1)
[22] = molecular target: HIV-1 Env of pseudovirus T250-4 (HIV-1)
[23] = molecular target: HIV-1 Env of pseudovirus T278-50 (HIV-1)
[24] = molecular target: HIV-1 Env of pseudovirus THRO4156.18 (HIV-1)
[25] = molecular target: HIV-1 Env of pseudovirus TRO.11 (HIV-1)
[26] = molecular target: HIV-1 Env of pseudovirus WEAU_d15_410_787 (HIV-1)
[27] = molecular target: HIV-1 Env of pseudovirus WITO4160.33 (HIV-1)
[28] = molecular target: HIV-1 Env of pseudovirus X1193_c1 (HIV-1)
[29] = molecular target: HIV-1 Env of pseudovirus X1632_S2_B10 (HIV-1)
[30] = molecular target: HIV-1 Env of pseudovirus X2088_c9 (HIV-1)
[31] = molecular target: HIV-1 Env of pseudovirus ZM109F.PB4 (HIV-1)
[32] = molecular target: HIV-1 Env of pseudovirus ZM135M.PL10a (HIV-1)
[33] = molecular target: HIV-1 Env of pseudovirus ZM214M.PL15 (HIV-1)
[34] = molecular target: HIV-1 Env of pseudovirus ZM233M.PB6 (HIV-1)
[35] = molecular target: HIV-1 Env of pseudovirus ZM247v1(Rev-) (HIV-1)
[36] = molecular target: HIV-1 Env of pseudovirus ZM53M.PB12 (HIV-1)

In the case of PGT128 (antibody), the neutralization IC50 [1] was 0.058 µg/mL, the neutralization IC80 [1] was 0.162 µg/mL and the neutralization IC50 [2] was 0.022 µg/mL. The neutralization IC80 [2] was 0.152 µg/mL, the neutralization IC50 [3] was 7.87 µg/mL and the neutralization IC80 [3] was > 50 µg/mL. For the same substance, the IC50 (Titer in TZM.bl cells) [4] was > 50 µg/mL, the IC80 (Titer in TZM.bl cells) [4] was > 50 µg/mL and the neutralization IC50 [5] was 8 ng/mL. The neutralization IC80 [5] was 0.018 µg/mL, the IC50 (Titer in TZM.bl cells) [6] was < 1 ng/mL and the IC80 (Titer in TZM.bl cells) [6] was 5 ng/mL. For the same substance, the IC50 (Titer in TZM.bl cells) [7] was 0.283 µg/mL, the IC80 (Titer in TZM.bl cells) [7] was 2.06 µg/mL and the neutralization IC50 [8] was > 50 µg/mL. For the same substance, the neutralization IC80 [8] was > 50 µg/mL, the neutralization IC50 [9] was 0.432 µg/mL and the neutralization IC80 [9] was 1.99 µg/mL. The neutralization IC50 [10] was > 50 µg/mL, the neutralization IC80 [10] was > 50 µg/mL and the neutralization IC50 [11] was 0.01 µg/mL. It also gave a neutralization IC80 [11] of 0.049 µg/mL, an IC50 (Titer in TZM.bl cells) [12] of 0.019 µg/mL and an IC80 (Titer in TZM.bl cells) [12] of 0.052 µg/mL. The neutralization IC50 [13] was > 50 µg/mL, the neutralization IC80 [13] was > 50 µg/mL and the neutralization IC50 [14] was > 50 µg/mL. For the same substance, the neutralization IC80 [14] was > 50 µg/mL, the neutralization IC50 [15] was > 50 µg/mL and the neutralization IC80 [15] was > 50 µg/mL. The neutralization IC50 [16] was 0.028 µg/mL, the neutralization IC80 [16] was 0.08 µg/mL and the neutralization IC50 [17] was > 50 µg/mL. The neutralization IC80 [17] was > 50 µg/mL, the neutralization IC50 [18] was > 50 µg/mL and the neutralization IC80 [18] was > 50 µg/mL. For the same substance, the neutralization IC50 [19] was 0.011 µg/mL, the neutralization IC80 [19] was 0.028 µg/mL and the neutralization IC50 [20] was > 50 µg/mL. For the same substance, the neutralization IC80 [20] was > 50 µg/mL, the neutralization IC50 [21] was 0.029 µg/mL and the neutralization IC80 [21] was 0.081 µg/mL. For the same substance, the neutralization IC50 [22] was < 1 ng/mL, the neutralization IC80 [22] was 7 ng/mL and the IC50 (Titer in TZM.bl cells) [23] was 0.031 µg/mL. For the same substance, the IC80 (Titer in TZM.bl cells) [23] was 0.089 µg/mL, the neutralization IC50 [24] was > 50 µg/mL and the neutralization IC80 [24] was > 50 µg/mL. The neutralization IC50 [25] was 0.019 µg/mL, the neutralization IC80 [25] was 0.045 µg/mL and the neutralization IC50 [26] was 0.032 µg/mL. For the same substance, the neutralization IC80 [26] was 0.153 µg/mL, the neutralization IC50 [27] was > 50 µg/mL and the neutralization IC80 [27] was > 50 µg/mL. The IC50 (Titer in TZM.bl cells) [28] was > 50 µg/mL, the IC80 (Titer in TZM.bl cells) [28] was > 50 µg/mL and the IC50 (Titer in TZM.bl cells) [29] was > 50 µg/mL. For the same substance, the IC80 (Titer in TZM.bl cells) [29] was > 50 µg/mL, the IC50 (Titer in TZM.bl cells) [30] was > 50 µg/mL and the IC80 (Titer in TZM.bl cells) [30] was > 50 µg/mL. The neutralization IC50 [31] was > 50 µg/mL, the neutralization IC80 [31] was > 50 µg/mL and the neutralization IC50 [32] was > 50 µg/mL. The neutralization IC80 [32] was > 50 µg/mL, the neutralization IC50 [33] was 1.5 µg/mL and the neutralization IC80 [33] was 29.4 µg/mL. For the same substance, the neutralization IC50 [34] was > 50 µg/mL, the neutralization IC80 [34] was > 50 µg/mL and the neutralization IC50 [35] was 0.021 µg/mL. For the same substance, the neutralization IC80 [35] was 0.081 µg/mL, the neutralization IC50 [36] was > 50 µg/mL and the neutralization IC80 [36] was > 50 µg/mL.
